The data set deals with the molecule itself. The data set can be described thus: crystal structure; hanging-drop vapour diffusion at 295 K, 0.1 M MES pH 5.6, 0.1 M ammonium sulfate, 27% PEG 3350; space group C2, three monomers in the asymmetric unit; protein pre-incubated with small-molecule ligands.

B1: Plasmodium falciparum spermidine synthase, 39-residue N-terminally truncated construct (enzyme, UniProt Q8II73 40-321, looked up)
chain: SKKWFSEFSIMWPGQAFSLKIKKILYETKSKYQNVLVFESTTYGKVLVLDGVIQLTEKDEFAYHEMMTHVPMTVSKEPKNVLVVGGGDGGIIRELCKYKSVENIDICEIDETVIEVSKIYFKNISCGYEDKRVNVFIEDASKFLENVTNTYDVIIVDSSDPIGPAETLFNQNFYEKIYNALKPNGYCVAQCESLWIHVGTIKNMIGYAKKLFKKVEYANISIPTYPCGCIGILCCSKTDTGLTKPNKKLESKEFADLKYYNYENHSAAFKLPAFLLKEIENI
notes: Spermidine synthase of Plasmodium falciparum, construct lacking the first 39 N-terminal residues, in the p15-Tev-LIC vector, as described in Dufe et al. (2007); The crystals also held small-molecule ligands (MTA, dcAdoMet, putrescine, spermidine, 4MAN, 4AMA, BIPA); also called PfSpdS; SpdS; source: His-tag removed with TEV protease; not shown: His6, N-terminal, cleaved
For B1, the binding result is recorded as “binds”.

The values above are taken from paper PMC4356361, “Three-dimensional structures of Plasmodium falciparum spermidine synthase with bound inhibitors suggest new strategies for drug design” (Acta Crystallographica Section D: Biological Crystallography, 2015).
